Results as given in the supplement of paper PMC10567573.

B1: POLD4 (parent)
chain: ITDSYPVVKRREGPAGHSKGELAP

Variants of: B1
Assay: protein stability index of a GFP-peptide fusion (GPS, HEK-293T) (PSI 1-6); higher = more stable
Details: c terminus: a fixed tail appended
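Further: lentivirally expressed fusions sorted by FACS into six bins by GFP to DsRed ratio, PSI derived from sequencing read proportions per bin multiplied by bin number.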

| Variant | protein stability index |
| --- | --- |
| ITDSYPVVKRREGPAGHSKGELAE [P24E] | 3.66 |
| ITDSYPVVKRREGPAGHSKGELAV [P24V] | 2.19 |
| ITDSYPVVKRREGPAGHSKGELAR [P24R] | 2.77 |
| ITDSYPVVKRREGPAGHSKGELAF [P24F] | 4.06 |
| ITDSYPVVKRREGPAGHSKGELAN [P24N] | 3.62 |
| ITDSYPVVKRREGPAGHSKGELAQ [P24Q] | 4.1 |
| ITDSYPVVKRREGPAGHSKGELAL [P24L] | 3.56 |
| ITDSYPVVKRREGPAGHSKGELAS [P24S] | 3.93 |
| ITDSYPVVKRREGPAGHSKGELAI [P24I] | 1.97 |
| ITDSYPVVKRREGPAGHSKGELAM [P24M] | 2.89 |
| ITDSYPVVKRREGPAGHSKGELAD [P24D] | 2.5 |
| ITDSYPVVKRREGPAGHSKGELAA [P24A] | 2.56 |
| ITDSYPVVKRREGPAGHSKGELAW [P24W] | 2.73 |
| ITDSYPVVKRREGPAGHSKGELAY [P24Y] | 2.38 |
| ITDSYPVVKRREGPAGHSKGELAC [P24C] | 3.13 |
| ITDSYPVVKRREGPAGHSKGSLAP [E21S] | 2.89 |
| ITDSYPVVKRREGPAGHSKGLLAP [E21L] | 2.85 |
| ITDSYPVVKRREGPAGHSKGGLAP [E21G] | 3.23 |
| ITDSYPVVKRREGPAGHSKGQLAP [E21Q] | 4.12 |
| ITDSYPVVKRREGPAGHSKGPLAP [E21P] | 4.46 |
| ITDSYPVVKRREGPAGHSKGNLAP [E21N] | 3.1 |
| ITDSYPVVKRREGPAGHSKGWLAP [E21W] | 2.84 |
| ITDSYPVVKRREGPAGHSKGDLAP [E21D] | 3.37 |
| ITDSYPVVKRREGPAGHSKGFLAP [E21F] | 2.64 |

| Variant | protein stability index |
| --- | --- |
| ITDSYPVVKRREGPAGHSKGVLAP [E21V] | 3.03 |
| ITDSYPVVKRREGPAGHSKGCLAP [E21C] | 3.14 |
| ITDSYPVVKRREGPAGHSKGILAP [E21I] | 2.96 |
| ITDSYPVVKRREGPAGHSKGTLAP [E21T] | 2.75 |
| ITDSYPVVKRREGPAGHSKGRLAP [E21R] | 2.13 |
| ITDSYPVVKRREGPAGHSKGMLAP [E21M] | 2.6 |
| ITDSYPVVKRREGPAGHSKGHLAP [E21H] | 3.23 |
| ITDSYPVVKRREGPAGHSKGKLAP [E21K] | 3 |
| ITDSYPVVKRREGPAGHSKPELAP [G20P] | 4 |
| ITDSYPVVKRREGPAGHSKLELAP [G20L] | 3.11 |
| ITDSYPVVKRREGPAGHSKVELAP [G20V] | 3.07 |
| ITDSYPVVKRREGPAGHSKMELAP [G20M] | 3.49 |
| ITDSYPVVKRREGPAGHSKNELAP [G20N] | 4.09 |
| ITDSYPVVKRREGPAGHSKKELAP [G20K] | 2.62 |
| ITDSYPVVKRREGPAGHSKSELAP [G20S] | 2.58 |
| ITDSYPVVKRREGPAGHSKFELAP [G20F] | 2.81 |
| ITDSYPVVKRREGPAGHSKDELAP [G20D] | 3.55 |
| ITDSYPVVKRREGPAGHSKAELAP [G20A] | 3.06 |
| ITDSYPVVKRREGPAGHSKHELAP [G20H] | 2.22 |
| ITDSYPVVKRREGPAGHSKWELAP [G20W] | 2.83 |
| ITDSYPVVKRREGPAGHSKYELAP [G20Y] | 2.92 |
| ITDSYPVVKRREGPAGHSKEELAP [G20E] | 2.93 |
| ITDSYPVVKRREGPAGHSKIELAP [G20I] | 2.99 |
| ITDSYPVVKRREGPAGHSKQELAP [G20Q] | 2.41 |

| Variant | protein stability index |
| --- | --- |
| ITDSYPVVKRREGPAGHSKCELAP [G20C] | 3.79 |
| ITDSYPVVKRREGPAGHSKTELAP [G20T] | 2.67 |
| ITDSYPVVKRREGPAGISKGELAP [H17I] | 3.49 |
| ITDSYPVVKRREGPAGTSKGELAP [H17T] | 3.91 |
| ITDSYPVVKRREGPAGNSKGELAP [H17N] | 3.54 |
| ITDSYPVVKRREGPAGRSKGELAP [H17R] | 3.35 |
| ITDSYPVVKRREGPAGLSKGELAP [H17L] | 3.49 |
| ITDSYPVVKRREGPAGPSKGELAP [H17P] | 2.5 |
| ITDSYPVVKRREGPAGFSKGELAP [H17F] | 3.01 |
| ITDSYPVVKRREGPAGESKGELAP [H17E] | 4.36 |
| ITDSYPVVKRREGPAGCSKGELAP [H17C] | 2.06 |
| ITDSYPVVKRREGPAGASKGELAP [H17A] | 2.97 |
| ITDSYPVVKRREGPAGKSKGELAP [H17K] | 4.05 |
| ITDSYPVVKRREGPAGYSKGELAP [H17Y] | 2.66 |
| ITDSYPVVKRREGPAGDSKGELAP [H17D] | 2.31 |
| ITDSYPVVKRREGPAGVSKGELAP [H17V] | 3.2 |
| ITDSYPVVKRREGPAGQSKGELAP [H17Q] | 3.51 |
| ITDSYPVVKRREGPAGSSKGELAP [H17S] | 3.78 |
| ITDSYPVVKRREGPAYHSKGELAP [G16Y] | 2.39 |
| ITDSYPVVKRREGPAKHSKGELAP [G16K] | 3.07 |
| ITDSYPVVKRREGPAHHSKGELAP [G16H] | 3.08 |
| ITDSYPVVKRREGPAPHSKGELAP [G16P] | 3.28 |
| ITDSYPVVKRREGPAWHSKGELAP [G16W] | 2.66 |
| ITDSYPVVKRREGPAIHSKGELAP [G16I] | 2.72 |

| Variant | protein stability index |
| --- | --- |
| ITDSYPVVKRREGPAQHSKGELAP [G16Q] | 3.5 |
| ITDSYPVVKRREGPAAHSKGELAP [G16A] | 4.75 |
| ITDSYPVVKRREGPATHSKGELAP [G16T] | 3.62 |
| ITDSYPVVKRREGPACHSKGELAP [G16C] | 3.52 |
| ITDSYPVVKRREGPAFHSKGELAP [G16F] | 3.33 |
| ITDSYPVVKRREGPAEHSKGELAP [G16E] | 3.83 |
| ITDSYPVVKRREGPADHSKGELAP [G16D] | 3.77 |
| ITDSYPVVKRREGPANHSKGELAP [G16N] | 2.82 |
| ITDSYPVVKRREGPALHSKGELAP [G16L] | 2.49 |
| ITDSYPVVKRREGPAMHSKGELAP [G16M] | 2.56 |
| ITDSYPVVKRREGPAVHSKGELAP [G16V] | 2.57 |
| ITDSYPVVKRREGPASHSKGELAP [G16S] | 2.51 |
| ITDSYPVVKRREGPARHSKGELAP [G16R] | 3.64 |
| ITDSYPVVKRREGPAGHSKGELMP [A23M] | 2.1 |
| ITDSYPVVKRREGPAGHSKGELRP [A23R] | 3.01 |
| ITDSYPVVKRREGPAGHSKGELTP [A23T] | 2.68 |
| ITDSYPVVKRREGPAGHSKGELQP [A23Q] | 3.31 |
| ITDSYPVVKRREGPAGHSKGELGP [A23G] | 2.68 |
| ITDSYPVVKRREGPAGHSKGELYP [A23Y] | 3.21 |
| ITDSYPVVKRREGPAGHSKGELIP [A23I] | 3.24 |
| ITDSYPVVKRREGPAGHSKGELFP [A23F] | 3.27 |
| ITDSYPVVKRREGPAGHSKGELPP [A23P] | 2.96 |
